Laboratory results reported in PMC7396694, “Two MarR-Type Repressors Balance Precursor Uptake and Glycine Betaine Synthesis in Bacillus subtilis to Provide Cytoprotection Against Sustained Osmotic Stress” (Frontiers in Microbiology, 2020).

Key:
[1] = molecular target: T1, GbsR-Strep-tag II (Bacillus subtilis JH642) (UniProt P71015); experiment: EMSA; conditions: 10 mM Tris pH 8, 150 ug/ml herring sperm DNA, 7.5% glycerol, 1 pmol DNA in 20 ul, 20 min at 25 C; native 8% polyacrylamide gel
T1 sequence: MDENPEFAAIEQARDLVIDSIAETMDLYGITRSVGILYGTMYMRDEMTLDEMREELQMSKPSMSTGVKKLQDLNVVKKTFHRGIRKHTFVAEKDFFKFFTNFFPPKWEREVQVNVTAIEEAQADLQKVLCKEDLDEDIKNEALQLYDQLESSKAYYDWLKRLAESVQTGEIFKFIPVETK

[2] = molecular target: the molecule itself; experiment: SEC; HiLoad 16/600 Superdex 200 pg; 2 ml protein solution (1 mg/ml) loaded immediately after affinity purification; 100 mM potassium phosphate (pH 8), 300 mM NaCl; column standardised with thyroglobulin, albumin, ovalbumin, cytochrome C

In the case of “GGGACTTTGACAGTTTAAAAACCATATGTTAGATTAAGGTTGTTAAAAACATTAAATTTTTATTTAACAAACTTTATTTACGTCAAGGAGGCTTAT (double strand) [gbsA fragment with GbsR operator]”, the binding [1] is reported as “binds”.

B1: GbsR-Strep-tag II recombinant protein (natural protein, Bacillus subtilis, UniProt P71015 1-180, looked up)
chain: MDENPEFAAIEQARDLVIDSIAETMDLYGITRSVGILYGTMYMRDEMTLDEMREELQMSKPSMSTGVKKLQDLNVVKKTFHRGIRKHTFVAEKDFFKFFTNFFPPKWEREVQVNVTAIEEAQADLQKVLCKEDLDEDIKNEALQLYDQLESSKAYYDWLKRLAESVQTGEIFKFIPVETK
notes: GbsR, choline-responsive MarR-type repressor of Bacillus subtilis; coding region of gbsR amplified from chromosomal DNA of B. subtilis JH642; also called GbsR repressor; not shown: Strep-tag II, C-terminal, kept
B1 was tested, and the “stoichiometry N” value [2] was 2.
